Target: T cell receptor of Ova-specific CD8+ T cells (OT-I), on OT-I cells (mouse)
Assay: cell-based or functional assay

B1: Kb(Ova)/ANXA5 (peptide-MHC)
chain: SIINFEKLGGGASGGGGSGGGGSIQKTPQIQVYSRHPPENGKPNILNCYVTQFHPPHIEIQMLKNGKKIPKVEMSDMSFSKDWSFYILAHTEFTPTETDTYACRVKHASMAEPKTVYWDRDMGGGGSGGGGSGGGGSGGGGSGPHSLRYFVTAVSRPGLGEPRYMEVGYVDDTEFVRFDSDAENPRYEPQAPWMEQEGPEYWERETQKAKGNEQSFRVDLRTLLGYYNQSKGGSHTIQVISGCEVGSDGRLLRGYQQYAYDGCDYIALNEDLKTWTAADMAALITKHKWEQAGEAERLRAYLEGTCVEWLRRYLKNGNATLLRTDSPKAHVTHHSRPEDKVTLRCWALGFYPADITLTWQLNGEELIQDMELVETRPAGDGTFQKWASVVVPLGKEQYYTCHVYHQGLPEPLTLRWEPPPSTRSMAQVLRGTVTDFPGFDERADAETLRKAMKGLGTDEESILTLLTSRSNAQRQEISAAFKTLFGRDLLDDLKSELTGKFEKLIVALMKPSRLYDAYELKHALKGAGTNEKVLTEIIASRTPEELRAIKQVYEEEYGSSLEDDVVGDTSGYYQRMLVVLLQANRDPDAGIDEAQVEQDAQALFQAGELKWGTDEEKFITIFGTRSVSHLRKVFDKYMTISGFQIEETIDRETSGNLEQLLLAVVKSIRSIPAYLAETLYYAMKGAGTDDHTLIRVMVSRSEIDLFNIRKEFRKNFATSLYSMIKGDTSGDYKKALLLLCGEDD
- IFN-γ expression of OT-I cells (flow cytometry); potency relative to dimeric Kb(Ova)/Fc: > 100 fold
- IFN-γ expression of resting or naïve OT-I cells after 12 hours (flow cytometry); potency by minimal dose of antigen required to detect activation, relative to monomeric Kb(Ova): > 1000 fold

Reference: patent US11987606 (Johns Hopkins, dated 2024)
